For the assay, the target named is pex14_human PEX14 (UniProt O75381).
Chain of UniProt O75381 (O75381 whole entry): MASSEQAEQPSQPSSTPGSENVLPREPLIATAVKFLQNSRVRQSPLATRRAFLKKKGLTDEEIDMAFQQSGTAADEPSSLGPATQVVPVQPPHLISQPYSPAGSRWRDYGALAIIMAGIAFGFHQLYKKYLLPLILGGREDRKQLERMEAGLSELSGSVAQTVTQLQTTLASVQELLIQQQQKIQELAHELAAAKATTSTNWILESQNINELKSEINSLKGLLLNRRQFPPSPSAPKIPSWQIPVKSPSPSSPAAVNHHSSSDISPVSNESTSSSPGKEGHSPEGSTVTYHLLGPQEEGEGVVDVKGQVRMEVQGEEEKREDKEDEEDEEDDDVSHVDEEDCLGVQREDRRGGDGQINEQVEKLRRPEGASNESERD

In the case of “Peroxisomal targeting signal 1 receptor (Homo sapiens) (from UniProt P50542) E121D”, the “effect of a mutation on the interaction” value is “disrupting interaction”.

The values above are taken from IntAct's records for PubMed 19197237.
